4 molecules from article PMC3575842 can be followed below.

Among the targets are slbo (Drosophila melanogaster, UniProt Q02637 1-449); Sox21a (Drosophila melanogaster, UniProt Q9VUD1 1-388); gooseberry (gsb) (Drosophila melanogaster, UniProt P09082 1-427); gooseberry-neuro (gsb-n) (Drosophila melanogaster, UniProt P09083 1-449); Gsc (Drosophila melanogaster, UniProt P54366 1-415).
Assay in all cases: MITOMI saturation binding
Another data set deals with T1, z (Drosophila melanogaster, UniProt P09956 1-575).
T1 sequence: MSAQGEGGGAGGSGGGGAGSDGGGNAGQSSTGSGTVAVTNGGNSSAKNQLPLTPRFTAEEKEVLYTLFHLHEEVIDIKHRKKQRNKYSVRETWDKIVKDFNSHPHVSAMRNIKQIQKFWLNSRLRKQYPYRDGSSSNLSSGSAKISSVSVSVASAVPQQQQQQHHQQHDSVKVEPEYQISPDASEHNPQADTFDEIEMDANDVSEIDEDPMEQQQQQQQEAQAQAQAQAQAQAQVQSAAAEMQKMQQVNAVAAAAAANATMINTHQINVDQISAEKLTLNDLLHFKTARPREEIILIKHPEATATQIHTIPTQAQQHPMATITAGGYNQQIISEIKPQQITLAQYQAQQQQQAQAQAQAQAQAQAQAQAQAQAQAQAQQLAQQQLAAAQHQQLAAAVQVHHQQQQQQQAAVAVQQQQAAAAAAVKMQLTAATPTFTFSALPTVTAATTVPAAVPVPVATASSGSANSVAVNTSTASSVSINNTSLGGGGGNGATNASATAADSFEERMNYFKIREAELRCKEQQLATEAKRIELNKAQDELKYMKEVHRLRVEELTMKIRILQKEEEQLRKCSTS

gooseberry (gsb), sequence (P09082 whole entry): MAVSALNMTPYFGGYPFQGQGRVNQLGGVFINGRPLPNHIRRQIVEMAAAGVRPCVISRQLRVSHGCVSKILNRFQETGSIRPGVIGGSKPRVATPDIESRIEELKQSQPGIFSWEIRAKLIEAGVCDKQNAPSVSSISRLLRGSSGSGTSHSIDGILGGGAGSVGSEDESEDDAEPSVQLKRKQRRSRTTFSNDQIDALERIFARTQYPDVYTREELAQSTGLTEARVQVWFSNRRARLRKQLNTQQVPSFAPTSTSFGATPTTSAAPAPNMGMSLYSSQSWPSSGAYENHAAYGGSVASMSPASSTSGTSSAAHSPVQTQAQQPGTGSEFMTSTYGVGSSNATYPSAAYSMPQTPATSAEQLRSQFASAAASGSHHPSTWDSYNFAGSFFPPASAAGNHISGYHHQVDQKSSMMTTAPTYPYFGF
Gsc, sequence (P54366 whole entry): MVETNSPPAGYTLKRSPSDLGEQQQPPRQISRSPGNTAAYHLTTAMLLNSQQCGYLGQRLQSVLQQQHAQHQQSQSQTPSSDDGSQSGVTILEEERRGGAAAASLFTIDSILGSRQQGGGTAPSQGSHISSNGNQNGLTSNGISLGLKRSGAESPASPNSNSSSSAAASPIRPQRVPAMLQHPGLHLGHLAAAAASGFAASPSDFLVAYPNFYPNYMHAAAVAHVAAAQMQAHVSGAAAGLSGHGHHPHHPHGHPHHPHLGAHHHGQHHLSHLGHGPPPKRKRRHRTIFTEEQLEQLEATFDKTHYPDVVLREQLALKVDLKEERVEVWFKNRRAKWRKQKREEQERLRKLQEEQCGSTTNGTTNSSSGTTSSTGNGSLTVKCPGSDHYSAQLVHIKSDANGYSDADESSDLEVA
gooseberry-neuro (gsb-n), sequence (P09083 whole entry): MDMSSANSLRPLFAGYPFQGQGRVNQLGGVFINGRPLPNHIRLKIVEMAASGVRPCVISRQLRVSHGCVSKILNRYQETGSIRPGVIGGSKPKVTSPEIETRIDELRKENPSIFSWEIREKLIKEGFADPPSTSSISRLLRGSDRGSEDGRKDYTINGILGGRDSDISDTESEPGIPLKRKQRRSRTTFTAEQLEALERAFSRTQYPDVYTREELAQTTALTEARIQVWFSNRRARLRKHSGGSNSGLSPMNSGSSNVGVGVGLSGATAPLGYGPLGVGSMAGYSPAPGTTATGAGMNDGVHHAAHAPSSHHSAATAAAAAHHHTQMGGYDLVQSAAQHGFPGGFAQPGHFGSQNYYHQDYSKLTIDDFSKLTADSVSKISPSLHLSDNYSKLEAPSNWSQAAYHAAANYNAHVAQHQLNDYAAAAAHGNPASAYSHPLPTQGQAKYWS
slbo, sequence (Q02637 whole entry): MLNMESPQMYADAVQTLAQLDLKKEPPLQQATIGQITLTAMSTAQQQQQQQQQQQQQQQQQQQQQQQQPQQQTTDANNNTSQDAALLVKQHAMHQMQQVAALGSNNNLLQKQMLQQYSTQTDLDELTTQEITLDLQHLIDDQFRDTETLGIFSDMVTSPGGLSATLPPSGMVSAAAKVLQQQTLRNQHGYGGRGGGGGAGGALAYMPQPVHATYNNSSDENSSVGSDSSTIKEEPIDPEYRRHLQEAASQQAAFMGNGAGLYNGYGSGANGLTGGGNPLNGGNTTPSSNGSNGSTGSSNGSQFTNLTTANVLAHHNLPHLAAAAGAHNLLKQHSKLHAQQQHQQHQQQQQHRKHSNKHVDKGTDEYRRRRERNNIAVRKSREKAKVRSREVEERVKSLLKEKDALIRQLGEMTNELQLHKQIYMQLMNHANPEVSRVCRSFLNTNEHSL

B1: gt motif (dsDNA)
DNA 1: CGCATTACGTAATAACTCCGGCGGTATGAC
DNA 2: GTCATACCGCCGGAGTTATTACGTAATGCG
Turning to B1, the binding result with slbo is “binds”.

B2: D motif (dsDNA)
DNA 1: CGCGTCCATTGTTCTCTCCGGCGGTATGAC
DNA 2: GTCATACCGCCGGAGAGAACAATGGACGCG
Turning to B2, the binding result in the data set with Sox21a is recorded as “binds”.

B3: prd motif (dsDNA)
DNA 1: CGCCCAATTTGTCACGCTCTCCGGCGGTATGAC
DNA 2: GTCATACCGCCGGAGAGCGTGACAAATTGGGCG
Take B3: the binding result with gooseberry (gsb), with gooseberry-neuro (gsb-n) and in the data set with z was “binds” in each case.

B4: bcd motif (dsDNA)
DNA 1: CGCGGATTAGCTCCGGCGGTATGAC
DNA 2: GTCATACCGCCGGAGCTAATCCGCG
For B4, the binding result with Gsc and in the data set with z was “binds” in each case.
